According to article PMC8249405, “Xanthomonas effector XopR hijacks host actin cytoskeleton via complex coacervation” (Nature Communications, 2021):

B1: Xcc XopR-FL (aa 1-411) (natural protein)
chain: MRLSQLFNSRHRVAPEPHGANPNKTTPLIPGASPQHPLSQAPKSTTSQGASKSHRGMLASARKSLASLRKQLPLTCMGSSPTLETVESPPAHTAAVTPGRTQQQHGTQARVDQRWQPPVPNATDHERVQRPQPQPQQTPPTRQSMSVPPKPARAQQLHGPQRPVDPRMQPPIPERMRRDEGQPPQHDKPASPPVPITPAQSSLPSPRPQPGRQPSLRRLDLQLEEITRQCSDIQKQLFMEDREATPQEQHLLKTRAALIAWRNEVRDSQLEALLVALAPMEDIRAPRTTSSGLAMVQMDAMQHNRREVLKARRKSVDRAALARNYARAQRRLESLKQGDAPKEQIRRLQRMMQGYQNMLALEQIVRSTDDQLERLGAPRLMSGIPTTAEQRRQSFEKERDAHQEAIDNGYY
notes: type III effector XopR of Xanthomonas campestris pv. campestris (Xcc) strain 8004, aa 1-411; The methods list a C-terminal His6-Flag form and a C-terminal mRuby2-His6-Flag form; also called full-length XopR; XopR full-length; source: E. coli BL21 (DE3) Rosetta, purified (HisTrap, gel filtration)
B2: WH2 peptide (peptide)
peptide: QCSDIQKQLFMEDREATPQEQHLLKTRAA
notes: XopR of Xcc, WH2-like motif without the extended helix; source: synthetic peptide (GL Biochem)
B3: MBP-HH-msfGFP (domain or fragment)
chain: SLRRLDLQLEEITRQCSDIQKQLFMEDRE
notes: XopR of Xcc, HH motif; also called chimeric protein HH; source: E. coli BL21 (DE3) Rosetta, purified; not shown: MBP, N-terminal, kept; msfGFP, C-terminal, kept
B4: EHWH2 peptide (peptide)
peptide: SLRRLDLQLEEITRQCSDIQKQLFMEDREATPQEQHLLKTRAA
notes: XopR of Xcc, extended helix plus WH2-like motif; also called CCWH2; source: synthetic peptide (GL Biochem)
B5: MBP-EHWH2-msfGFP (domain or fragment)
chain: B4 peptide
notes: XopR of Xcc, EHWH2 stretch; also called chimeric protein EHWH2; source: E. coli BL21 (DE3) Rosetta, purified; not shown: MBP, N-terminal, kept; msfGFP, C-terminal, kept
B6: HH peptide (peptide)
peptide: SLRRLDLQLEEITRQCSDIQKQLFMEDRE
notes: XopR of Xcc, HH motif (extended helix and WH2 alpha-helix); also called CC; CC peptide; source: synthetic peptide (GL Biochem)

Assays:
[1] = target: the molecule itself; test: SEC; Superdex 200 Increase 10/300, 150 mM NaCl, against protein standards
[2] = target: G-actin (monomeric Ca2+-ATP-actin from rabbit skeleton muscle) (rabbit, UniProt P68135 1-377); test: MST; peptides serially diluted and titrated into 10 uM LatB-actin; 50 mM Tris pH 7.4, 150 mM NaCl, 0.05% Tween 20; 22 °C; called label-free in the results; conditions: both partners purified
[3] = target: F-actin (filaments assembled from rabbit skeleton muscle actin) (rabbit, UniProt P68135 1-377); test: co-sedimentation; high speed (100,000 x g, 20 min, 25 °C); 2 uM F-actin with a range of concentrations of the MBP-msfGFP fusion; SDS-PAGE; Hill fit; conditions: both partners purified

Binder	Kd [2]	Kd [3]	other results
B1	–	–	stoichiometry N [1]: 3
B2	> 100 µM	–	–
B3	–	1.27 ± 0.05 µM	–
B4	16.5 ± 4.53 µM	–	–
B5	–	1 ± 0.06 µM	–
B6	73.9 ± 63 µM	–	–
